Data on 31 molecules can be found in US20240309093A1 (MINGHUI PHARMACEUTICAL HANGZHOU, published 2024).

The labels stand for the following.
B1: MHPD1-A-H1 Fc (Fc fusion, not shown: a dimerising Fc or GST; small tags and cut ends)
VHH: QVQLVESGGGSVQPGGSLTLSCAASGSDPSIYAMGWFRQAPGKEHEFVAGIGWSAATTYYADSVKGRFGISRDNTKNTVALLMNSLKPEDTAIYYCAADLDHSGFDYWGQGTLVTVSS
notes: First round of humanization of MHPD1-A; also called humanized nanobody-Fc fusion protein
B2: MHPD1-A-H10 Fc (Fc fusion, not shown: a dimerising Fc or GST; small tags and cut ends)
VHH: B1 VHH with T19R, G69T, V79L
notes: as for B1
B3: MHPD1-A-H9 Fc (Fc fusion, not shown: a dimerising Fc or GST; small tags and cut ends)
VHH: B1 VHH with T19R, K87R, P88A
notes: also called humanized nanobody-Fc fusion protein
B4: MHPD1-A-H6 Fc (Fc fusion, not shown: a dimerising Fc or GST; small tags and cut ends)
VHH: B1 VHH with P14V, G35M, L113Q
notes: as for B1
B5: MHPD1-A-H3 Fc (Fc fusion, not shown: a dimerising Fc or GST; small tags and cut ends)
VHH: B1 VHH with P14V, V79L, L113Q
notes: as for B1
B6: MHPD1-A-H2 Fc (Fc fusion, not shown: a dimerising Fc or GST; small tags and cut ends)
VHH: B1 VHH with P14V, T19R, K87R, P88A, L113Q
notes: as for B1
B7: MHPD1-A-H7 Fc (Fc fusion, not shown: a dimerising Fc or GST; small tags and cut ends)
VHH: B1 VHH with P14V, G35M, T75S, L113Q
notes: as for B1
B8: MHPD1-A-H5 Fc (Fc fusion, not shown: a dimerising Fc or GST; small tags and cut ends)
VHH: B1 VHH with P14V, A80Y, L82Q, L113Q
notes: as for B1
B9: MHPD1-A-H8 Fc (Fc fusion, not shown: a dimerising Fc or GST; small tags and cut ends)
VHH: B1 VHH with P14V, E44G, H45L, L113Q
notes: as for B1
B10: MHPD1-A-3 H Fc (Fc fusion, not shown: a dimerising Fc or GST; small tags and cut ends)
VHH: QVQLVESGGGLVQPGGSLRLSCAASGSGRSIYAMGWFRQAPGKGLEFVAGIGWSYATTYYADSVKGRFTISRDNTKNTLYLQMNSLRAEDTAVYYCAADLDHSGFDYWGQGTLVTVSS
B11: MHPD1-A-H19 Fc (Fc fusion, not shown: a dimerising Fc or GST; small tags and cut ends)
VHH: B10 VHH with G28D, R29P, Y55A
notes: Second round of humanization; also called humanized nanobody-Fc fusion protein; parent MHPD1-A-H19 Fc
B12: MHPD1-A-8 H Fc (Fc fusion)
chain: B10 VHH with S27G, G28R, R29P, S54A, Y55F
notes: not shown: Fc
B13: MHPD1-A-14 H Fc (Fc fusion, not shown: a dimerising Fc or GST; small tags and cut ends)
VHH: B10 VHH with G26S, S27H, G28R, R29P, S54R
B14: MHPD1-A-13 H Fc (Fc fusion)
chain: B10 VHH with G26H, S27A, G28D, R29P, S54N
notes: not shown: Fc
B15: MHPD1-A-30 H Fc (Fc fusion)
chain: B10 VHH with A24T, S27V, G28R, S54A, T58Q, L100I
notes: not shown: Fc
B16: MHPD1-A-37 H Fc (Fc fusion, not shown: a dimerising Fc or GST; small tags and cut ends)
VHH: B10 VHH with A24T, S27A, G28R, S54A, H102R, S103T
B17: MHPD1-A-32 H Fc (Fc fusion)
chain: B10 VHH with A24T, G26K, S27N, G28R, S54A
notes: not shown: Fc
B18: MHPD1-A-15 H Fc (Fc fusion)
chain: B10 VHH with A24T, S27L, G28R, S54A, A56S
notes: not shown: Fc
B19: MHPD1-A-49 H Fc (Fc fusion, not shown: a dimerising Fc or GST; small tags and cut ends)
VHH: B10 VHH with A24T, G28R, S54A, H102R, S103V
B20: MHPD1-A-21 H Fc (Fc fusion, not shown: a dimerising Fc or GST; small tags and cut ends)
VHH: B10 VHH with A24T, G28R, S54A, T58S
B21: MHPD1-A-23 H Fc (Fc fusion)
VHH: B10 VHH with A24T, S27T, G28R, S54A
notes: not shown: Fc region
B22: MHPD1-A-45 H Fc (Fc fusion)
chain: B10 VHH with A24T, G26H, S27L, G28R, S54A
notes: not shown: Fc
B23: MHPD1-A-20 H Fc (Fc fusion, not shown: a dimerising Fc or GST; small tags and cut ends)
VHH: B10 VHH with A24T, G28R, R29K, S54A
B24: MHPD1-A-39 H Fc (Fc fusion)
chain: B10 VHH with A24T, G28R, S54A, T58E
notes: not shown: Fc
B25: Pembrolizumab (antibody, human IgG4 S228P, kappa, V domains shown)
VH: QVQLVQSGVEVKKPGASVKVSCKASGYTFTNYYMYWVRQAPGQGLEWMGGINPSNGGTNFNEKFKNRVTLTTDSSTTTAYMELKSLQFDDTAVYYCARRDYRFDMGFDYWGQGTTVTVSS
VL: EIVLTQSPATLSLSPGERATLSCRASKGVSTSGYSYLHWYQQKPGQAPRLLIYLASYLESGVPARFSGSGSGTDFTLTISSLEPEDFAVYYCQHSRDLPLTFGGGTKVEIKR
B26: MHPD1-A-H12 Fc (Fc fusion, not shown: a dimerising Fc or GST; small tags and cut ends)
VHH: B1 VHH with T19R, G69T, V79L, K87R, P88A
notes: Second round of humanization of MHPD1-A; also called humanized nanobody-Fc fusion protein
B27: MHPD1-A-H15 Fc (Fc fusion, not shown: a dimerising Fc or GST; small tags and cut ends)
VHH: B10 VHH with L11S, G28D, R29P, G44E, L45H, Y55A, V93I
notes: as for B26
B28: MHPD1-A-H17 Fc (Fc fusion, not shown: a dimerising Fc or GST; small tags and cut ends)
VHH: B10 VHH with L11S, G28D, R29P, Y55A, V93I
notes: as for B26
B29: MHPD1-A-H14 Fc (Fc fusion, not shown: a dimerising Fc or GST; small tags and cut ends)
VHH: B1 VHH with T19R, A80Y, L82Q, K87R, P88A
notes: as for B26
B30: MHPD1-A-H16 Fc (Fc fusion, not shown: a dimerising Fc or GST; small tags and cut ends)
VHH: B1 VHH with S11L, T19R, K87R, P88A, I93V
notes: as for B26
B31: MHPD1-A-H18 Fc (Fc fusion, not shown: a dimerising Fc or GST; small tags and cut ends)
VHH: B10 VHH with G28D, R29P, Y55A, V93I
notes: as for B26

Positions count from the first letter of the chain named.

T1 sequence (Q15116 25-167 limits assumed): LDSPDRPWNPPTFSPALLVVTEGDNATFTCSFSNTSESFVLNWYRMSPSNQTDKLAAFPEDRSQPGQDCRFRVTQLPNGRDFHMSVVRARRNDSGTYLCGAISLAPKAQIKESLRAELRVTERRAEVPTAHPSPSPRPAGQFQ

One assay concerns the target T1, recombinant human PD-1-his protein (human, UniProt Q15116 25-167).
T1 construct: also called hPD-1-his; not shown: his tag
As to the kind of experiment: ELISA (first round of humanization); PD-1-his coated 2 µg/mL, anti-human IgG Fc-HRP. As for the experimental part:
(§1) 96-well ELISA plates were coated with 2 μg/mL of recombinant human PD-1-his antigen protein at 30 μL/well at 4° C. overnight. The plates were washed three times with PBST. 5% PBS-Milk was added and incubated at room temperature for 2 h. The plates were washed three times with PBST. All the nanobody-Fc fusion proteins were subject to 3-fold gradient dilutions with an initial concentration of 10 μg/mL, added into each well at 30 μL/well, and incubated at room temperature for 1 hr. The plates were washed three times with PBST. The secondary antibody Goat-Anti-Human-IgG-Fc-HRP (purchased from Sigma) was diluted at 1:8000, added into each well at 30 μL/well, and incubated at room temperature for 50 min. The plates were washed three times with PBST. TMB (purchased from SurModics) was added into each well at 30 μL/well and developed at room temperature in dark for 1 min to 5 min. 2 M hydrochloric acid was added at 30 μL/well to stop the reaction. The OD450 absorbance value was read by a microplate reader.
Turning to B1, the EC50 was 0.24 µg/mL.

Take B2: the EC50 was found to be 0.32 µg/mL.

B3: the EC50 turned out to be 0.15 µg/mL.

Consider B4, for which the half-maximal effective concentration (EC50) was found to be 2.91 µg/mL.

Consider B5, for which the EC50 amounted to 0.16 µg/mL.

Consider B6, for which the EC50 came to 0.22 µg/mL.

With B7, the EC50 was 2.54 µg/mL.

Take B8: the EC50 was found to be 0.35 µg/mL.

On to B9, for which the EC50 turned out to be 0.2 µg/mL.

For another assay, the target named is T2, recombinant human PD-1-Fc-Biotin (human, UniProt Q15116 25-167, biotin (site not stated)).
T2 construct: also called antigen protein human PD-1; not shown: Fc
T2 sequence (Q15116 25-167 limits assumed): as above
The assay can be described thus: competitive ELISA; PD-L1-mFc coated, 0.5 µg/mL PD-1-Fc-Biotin, streptavidin-HRP. As to the method: The plates were washed three times with PBST. 5% PBS-Milk was added and incubated at room temperature for 1 hr. All the nanobody-Fc fusion proteins were subject to 3-fold gradient dilutions with an initial concentration of 10 μg/mL, added into each well at 30 μL/well, and incubated at room temperature for 1 hr. […] The well plates were washed with PBST between incubations.
As for B10, the IC50 came to 0.275 nM.

B11: the IC50 was found to be 1.31 nM.

Regarding B12, the IC50 turned out to be 0.323 nM.

For B13, the 50% inhibitory concentration (IC50) came to 0.852 nM.

With B14, the half-inhibitory concentration (IC50) worked out at 0.395 nM.

In another assay the target is T1, recombinant human PD-1-his protein. The assay can be described thus: ELISA; PD-1-his coated 2 µg/mL, anti-human IgG Fc-HRP. As for the experimental part: (§2) The plates were washed three times with PBST. 5% PBS-Milk and incubated at room temperature for 2 h. The plates were washed three times with PBST. All the nanobody-Fc fusion proteins were subject to 3-folded gradient dilution with an initial concentration of 10 μg/mL, added into each well at 30 μL/well, and incubated at room temperature for 1 hr. The plates were washed three times with PBST. The secondary antibody Goat-Anti-Human-IgG-Fc-HRP was diluted at 1:8000, added into each well at 30 μL/well, and incubated at room temperature for 50 min. The plates were washed nine times with PBST. TMB was added into each well at 30 μL/well and developed at room temperature in dark for 1 min to 5 min. 2 M hydrochloric acid was added at 30 μL/well to stop the reaction. The OD450 absorbance value was read by a microplate reader. Graphpad Prism software was used to fit the curve and calculate EC₅₀ values.
B15: the concentration giving a half-maximal response (EC50) was 0.166 nM.

For the molecule B16, the 50% effective concentration (EC50) turned out to be 0.141 nM.

Regarding B17, the EC50 came out at 0.156 nM.

As to B18, the EC50 is 0.134 nM.

As to B19, the EC50 worked out at 0.171 nM.

B20: the EC50 came out at 0.179 nM.

B21: the EC50 is 0.152 nM.

As for B22, the half-maximal effective concentration (EC50) is 0.146 nM.

In the case of B23, the EC50 amounted to 0.175 nM.

For the molecule B24, the EC50 was determined as 0.158 nM.

The next assay has the same target. Described as above. This is another data set of the same source. As to the method: as §2, with “PBS-Milk was added” for “PBS-Milk”, “3-fold” for “3-folded”, “dilutions” for “dilution”, “calculate the” for “calculate”, “value (see Table 7).” for “values.”
Consider B10, for which the 50% effective concentration (EC50) amounted to 0.251 nM.

Regarding B11, the concentration for a half-maximal effect (EC50) was 0.369 nM.

Take B12: the concentration giving a half-maximal response (EC50) was 0.169 nM.

Turning to B13, the concentration for a half-maximal effect (EC50) is 1.22 nM.

For the molecule B14, the half-maximal effective concentration (EC50) was 0.14 nM.

The target of a further assay is PD1 on Jurkat-NFAT-PD1 transgene cells. As to the kind of experiment: cell-based or functional assay.
For B25, the “luciferase reporter gene fluorescence signal, Jurkat-NFAT-PD1 effector cells with Hep3B-OS8-PDL1 target cells (EC50)” value came out at 0.091 nM.

Turning to B10, the “luciferase reporter gene fluorescence signal, Jurkat-NFAT-PD1 effector cells with Hep3B-OS8-PDL1 target cells (EC50)” value was 0.078 nM.

A further assay deals with T1, recombinant human PD-1-his protein. As to the kind of experiment: ELISA (second round of humanization); PD-1-his coated 2 µg/mL, anti-human IgG Fc-HRP. As to the method: as §1
Regarding B11, the EC50 is 0.55 nM.

For B26, the EC50 was determined as 4.32 nM.

B27: the EC50 came out at 2.15 nM.

For B28, the concentration for a half-maximal effect (EC50) was determined as 0.64 nM.

Consider B29, for which the EC50 came to 1.88 nM.

For the molecule B30, the concentration for a half-maximal effect (EC50) came to 2.29 nM.

Consider B31, for which the EC50 worked out at 1.29 nM.

The next assay deals with T2, recombinant human PD-1-Fc-Biotin. The assay can be described thus: competitive ELISA; PD-L1-mFc coated, 0.5 µg/mL PD-1-Fc-Biotin, streptavidin-HRP. The source holds these as a separate data set. As for the experimental part: The plates were washed three times with PBST. 5% PBS-Milk was added and incubated at room temperature for 1 hr. All the nanobody-Fc fusion proteins were subject to 3-fold gradient dilutions with an initial concentration of 10 μg/mL, added into each well at 30 μL/well, and incubated at room temperature for 1 hr. […] The plates were washed with PBST between incubations.
B15: the IC50 was found to be 1.08 nM.

In the case of B16, the IC50 was determined as 1.54 nM.

On to B17, for which the IC50 was determined as 1.72 nM.

Regarding B18, the concentration for half-maximal inhibition (IC50) came out at 0.517 nM.

Turning to B19, the IC50 stood at 1.26 nM.

In the case of B20, the 50% inhibitory concentration (IC50) was found to be 1.61 nM.

Turning to B21, the 50% inhibitory concentration (IC50) came to 1.2 nM.

B22: the IC50 stood at 0.944 nM.

On to B23, for which the IC50 stood at 1.21 nM.

For the molecule B24, the IC50 stood at 0.85 nM.
